PMC10504565

Target: endogenous POLR2A/RPB1, the largest subunit of RNA pol II, of HepG2 cells (human (endogenous in HepG2)) (UniProt P24928)
Test: proximity ligation; fixed HepG2 cells (SHP-1 WT; SHP-1 KO as negative control), anti-SHP-1 and anti-RPB1 antibodies, Duolink In Situ kit; nuclear dots counted in at least 400 nuclei

Sequence of endogenous SHP-1 of HepG2 cells, P29350 1-595 (natural protein; other documents disagree on this pair) (P29350 whole entry): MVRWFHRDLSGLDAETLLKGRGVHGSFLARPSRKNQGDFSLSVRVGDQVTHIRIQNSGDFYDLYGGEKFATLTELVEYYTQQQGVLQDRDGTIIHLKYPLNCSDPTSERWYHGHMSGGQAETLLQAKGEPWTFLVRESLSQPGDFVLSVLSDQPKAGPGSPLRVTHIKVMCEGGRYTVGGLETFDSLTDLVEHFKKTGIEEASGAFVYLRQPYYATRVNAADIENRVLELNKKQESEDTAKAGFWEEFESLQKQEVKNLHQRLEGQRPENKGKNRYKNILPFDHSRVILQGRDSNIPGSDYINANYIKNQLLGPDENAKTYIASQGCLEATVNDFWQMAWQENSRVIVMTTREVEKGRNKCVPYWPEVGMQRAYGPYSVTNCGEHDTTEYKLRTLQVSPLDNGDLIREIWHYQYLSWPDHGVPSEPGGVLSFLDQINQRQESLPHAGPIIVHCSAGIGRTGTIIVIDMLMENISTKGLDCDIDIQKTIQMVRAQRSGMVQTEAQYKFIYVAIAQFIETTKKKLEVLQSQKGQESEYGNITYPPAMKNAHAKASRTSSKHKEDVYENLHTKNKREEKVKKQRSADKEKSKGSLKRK

percent of nuclei with PLA dots: 44 % of nuclei
Substance: endogenous SHP-1 of HepG2 cells, P29350 1-595 (natural protein; other documents disagree on this pair)
